# Results published in the nanobody polyreactivity screen of Harvey et al. (2022).
# Experiment: yeast display, Sf9 membrane polyspecificity reagent, FACS + sequencing; frameworks hold sequencing errors
# How it was run: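 Galactose induction of a Saccharomyces cerevisiae BJ5465 synthetic nanobody display library ran 36–48 hours. The cells were then stained for 1 hour at 4 °C with 10% biotinylated, detergent-solubilized Sf9 membrane reagent, pulled down on streptavidin microbeads and FACS-sorted into low and high (top ~1%) gates on expression and reagent-binding fluorescence. Labels for polyreactivity follow the gate of origin.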
row,Sequence,polyreactivity (PSR sort gate)
1,QVQLVESGGGLVQAGGSLRLICAASGYTFFFYAMGWYRQAPGKEREFVAAITWRGDSTYYADSVKGRYTISRDNAKNTVYLQMNSLKPEDTAVYYCAADPGFTWSRRMDYWGHGTQVTVSS,low polyreactivity
2,QVQLVESGGGLVQAGGSLRLICAASGYTFPDYAMGWYRPAPGTERELVAAIRSGGGTNYADSVKGRFTISRDNAKNSVYLQMNSMKPEDTAVFYCAKEWAGGLYDYWGQGTQVTVSS,low polyreactivity
3,QVQLVESGGGLVQAGGSLRLICAASGYTFPYAMGWYRQAPGKERELVAAISRSGASTYYADSVKGRFTISRDNAKNTVYLQMNSLKPEDTAVYYCATRRVYSTRVKFYYWGQGTQVTVSS,high polyreactivity
4,QVQLVESGGGLVQAGGSLRLICAASGYTFYYAMGWYRQAPGKERELVAAISAGGGRTYYADSVKGRFTISRDNAKITVYLQMNSLKPEDTAVYYCNRVYRLTAYGYDYWGQGTQVTVSS,high polyreactivity
5,QVQLVESGGGLVQAGGSLRLICAATGFTFHNNVMGWYRQAPGKERELVATISKSGGSTYYADSVKGRFTISRDNAKNTVYLQMNRLKPEDTAVYYCARRYRDYGRYGYWGQGTQVTVSS,high polyreactivity
6,QVQLVESGGGLVQAGGSLRLICAGSGSTFPTYAMGWYRQAPGKERELVAAITSGSGTNTYYADSVKGRFTISRDNAKNTVYLQMNSLKPEDTAVYYCAASGGKNGMNYWGQGTQVTVSS,high polyreactivity
7,QVQLVESGGGLVQAGGSLRLICAPSGITFYPYSMGWSRQAPGKERELVAAISGGTNTHYADSVKGRFTISRDNAKNTDYLQMNSLKPVDTAVYYCAAGIDFRRTTSYSFWFDYWGQGTQVTVSS,high polyreactivity
8,QVQLVESGGGLVQAGGSLRLICASSGRIFSPYVMGWYRQAPGKERELVARISWTGSSTYYADSVKGRFTISRDNAKNTVYLQMNSLKPEDTAVYYCAKRLTRFYTRLEYWGLGTQVTVSS,low polyreactivity
9,QVQLVESGGGLVQAGGSLRLICDASGRTFPPYAMGWYRQAPGKERELVAAISRRAGTTYYADSVKGRFTISRDNAKNTDYLQMNSLKPEDTAVYYCAADTPVWSGYWYDYWGQGTQVTVSS,low polyreactivity
10,QVQLVESGGGLVQAGGSLRLICPASGSTFQYYAMGWYRQAPGKEREFVAAIRSSGGTTYYADSVKGRFTISRDNAKKTVYLQMNSLKPEDTAVYYCATVVNYPSARYCYWGQGTKVTVSS,high polyreactivity
11,QVQLVESGGGLVQAGGSLRLICSASGSTFNLYAMGWYRQAPWTERELVAAISYRGGTTYYADSVKGRFTISRDNAKHTVYLQMNSLKREDTAVYYCSAGWRPRSLRDASKYDFWGQGTQVTVSS,low polyreactivity
12,QVQLVESGGGLVQAGGSLRLNCAASGITFGYNAMGWYRQPPGKERELVAAISSRGGSTYYADSVKGRFTISRDNAKNTVYLQMNSMKPEDTAVYYCAKDGGPGRYAWYWPVRMGYWGQGTQVTVSS,high polyreactivity
13,QVQLVESGGGLVQAGGSLRLNCAASGITIRRYAMGCYRQAPGNERELVAAITTGGGGTYYADSVKGRFTISRDNAMNTVYLQMNSLKPEDTAVYYCAATYWRTYPSYYWGQGTQVTVSS,high polyreactivity
14,QVQLVESGGGLVQAGGSLRLNCAASGNIFISYAMGWYRQAPGKERELVAAISRSGGSTYYADSVKGRFTISRDYAKNTVYLQMNSLKPEDTAVYYCAAYIGPGRYGSWGQGTQVTVSS,high polyreactivity
15,QVQLVESGGGLVQAGGSLRLNCAASGSIFGQYTMGWYRQAPGKERELVADITSGGSTYYADSVKGRFTISRDNAKNTVYLQMNSLKPEDPAVYYCAAVDWKAHWEMGYWGQGTQVTVSS,low polyreactivity
16,QVQLVESGGGLVQAGGSLRLNCAASGSILYLNAMGWYRQAPGKERELLAAITWSGGSTSYADSVKGRFTISRDYAKNTVSLQMNSLKPEDTAVYYCSAVRRGYGGVYYAGGYWGQGTQVTVSW,low polyreactivity
17,QVQLVESGGGLVQAGGSLRLNCAASGSTFNRNAMGWYRQAPGKERELVATISSGGSTNYADSVKGRFTITRDNAKNTVYLLMISLYPEDTWVYYCAKRSLYRYYYWGQGSQVTVSS,high polyreactivity
18,QVQLVESGGGLVQAGGSLRLNSAASGIIFPRYAMGWYSQAPGKEWEVVAGFTSSGGTYYADSVKGRFTISRDHAKNTVYLQMNSLIPEDTAVYYCAARQGNLRRGVRWFNYWGQGTQVTVSS,high polyreactivity
19,QVQLVESGGGLVQAGGSLRLRCAASGFIFSAYAMGWYSQAPGKERELVAGITKSVGRTTYADSVKGRFTIARDNAKNTVYLQMNSLKPEDTAVYYCNARRSYTYRIFGMDYWGQGTQVTVSS,high polyreactivity
20,QVQLVESGGGLVQAGGSLRLRCAASGFNFSFDNAMGWYRQAPGKERELVAAISSGTTTHYADSVKGRFTISRDNAKNTVYLQMNSLKPEDTAVYYCAADTAQQSGYEYDYWGQGTQVTVSS,low polyreactivity
21,QVQLVESGGGLVQAGGSLRLRCAASGFNSVRNAMGWYRPAPGKEREFVAAISGGGGSTYYADSVKGRFTISRDNAMNTVYLQMNSLKPEDTAVYYCAPRSYWGQGTQVTVSS,high polyreactivity

row,Sequence,polyreactivity (PSR sort gate)
1,QVQLVESGGGLVQAGGSLRLRCAASGIIFPYYTMGGYRQAPGKERELVARITNGGRTYYADSVKGRFTISRDNAKNTVYLQMNSLKPEYTAVYYCIAGRYYIGGYWGQGTQVTVSS,high polyreactivity
2,QVQLVESGGGLVQAGGSLRLRCAASGIIFSPYDMGWSIQAPGKVRELVAAITTGDSTNYADSVKGRFTMSRDNAKTTVYFPMNSLKPEDTAVDYCNATDTYVFFLYLEFDYWGQGTQVTVSS,low polyreactivity
3,QVQLVESGGGLVQAGGSLRLRCAASGIIFTGYALGWYRQAPGKESELVAAISRSGGGTYYADSVKARFTISRDNAKNTVYLQINSLKPEDTAVYYCNRLRIAASYWQAYDYWGQGTQVTLSS,high polyreactivity
4,QVQLVESGGGLVQAGGSLRLRCAASGIIQQSYALGWSRQAPGKERELVAAIRGSDGSTYYADSVKGRFTISRDNAKNTVYLQMNSLKPEDTAVYYCNADTRTWPLDYWGQGTQVTVSS,low polyreactivity
5,QVQLVESGGGLVQAGGSLRLRCAASGNIFLSYAMGWYRQAPGKERELVAGISASGGRTYYADSVKGRFTISRDNAKNTVYLQMNSLKPEDTAVYYCATRGQTRTTTRYYSWGQGTQVTVSS,high polyreactivity
6,QVQLVESGGGLVQAGGSLRLRCAASGRIFARNAMGWYRQAPGKERELVAAISSRGSSTYYADSVKGRFTISRDNAKNTVYLQMNSLKPEDTAVYYCNAYYSVYPPGYDYWGQGTQVTVSS,high polyreactivity
7,QVQLVESGGGLVQAGGSLRLRCAASGRIFDANAMGWYRQAPGKERELVAAITSRGGTTFYADSVKGRFTISRDNEKNTDYLQMNSLKPEDTAVYYCAADRYYFYRRYDYWGQGTQVTVSS,high polyreactivity
8,QVQLVESGGGLVQAGGSLRLRCAASGRIFGRNAMGWYRQAPGKERELVAAISGGGSTNYADSVKGRFTISRDNAKNTVYLQMKSLKPADTAVYYCAVKQGFYSRALKLYYWGQGTQVTVSS,high polyreactivity
9,QVQLVESGGGLVQAGGSLRLRCAASGRIFLPYAMGWYRQAPGKERELVAGISSRGSTKYADSVKGRFTISRDNAKNTVYLQMNTLKPEETAVYYCNKVKKSDKFNNFSNDYWGQGTQVTVSS,high polyreactivity
10,QVQLVESGGGLVQAGGSLRLRCAASGRIFRKYAMGWYRQAPGKERELVAAITSGGSTYYADSVKGRFTISRDNAKNTVYLQMNSLKPEDTAVYYCAAFYRGGDYWGQGTQVTVSS,high polyreactivity
11,QVQLVESGGGLVQAGGSLRLRCAASGRIFRPYTMGWYRQAPGKERELVAAITSGSSTNYADSVKGRFTISRDNAKNTVYLQMNSLKPEDTAVYYCAVKVRIFASYYPFYYWGQGTQVTVSS,high polyreactivity
12,QVQLVESGGGLVQAGGSLRLRCAASGRIFVYNAMGWYRQAPGKERELVAAISRSGSSTYYADSVKGRFTISRDNAKNTVYLQMYSLKPEDTSVYYCAARTFSIAYYKYGYWGQGTHVTVSS,high polyreactivity
13,QVQLVESGGGLVQAGGSLRLRCAASGRTFAVYAMGWYRQAPGKERELVAAITLGASRSYYADSVKGRFTISRDNAKNTVYLHMNSLKPEDTAVYYCNAVGRRNVVSSLNDYWGQGTQVTVSS,low polyreactivity
14,QVQLVESGGGLVQAGGSLRLRCAASGRTFCWYAMGWYRQAPGKERELVADITYSGGNTYYADSVKGRFTITRDNAKNTVYLQMNSLKPEDTAVYYCAAERKNKYDYWGQGTQVTVTS,high polyreactivity
15,QVQLVESGGGLVQAGGSLRLRCAASGRTFDTYAMGWYRQAPWKERELVASITYRGGSTYYADSVKGRFTISRDNGKNTVYLQLNSLKPVDTAVYYCNAKVKRNKRWRGYWGQGTQVTVSS,high polyreactivity
16,QVQLVESGGGLVQAGGSLRLRCAASGRTFLTNTLGWYRQAPGKERELVAAISSGGSTKYADSVKGRFTISRDNAKNTVYLQMNSLKTEDTAVYYCAATGWRYGYKYYYWGQGTQVTVSS,high polyreactivity
17,QVQLVESGGGLVQAGGSLRLRCAASGRTFWWNAMGWYRQAPGKERELVAGTYSRGGGTYYADSVKGRFTISRDNAKNRVYLQMNRLKAEDTAVYYCASQAPVYRYYYWGQGTQVTVSS,high polyreactivity
18,QVQLVESGGGLVQAGGSLRLRCAASGRTFYYNVMGWYRQAPGKERELVATITSGASTNYADSVKGRFTISRDNAKNTVYLQMNSLKPEDTAVYYCNTEYYPRWYGPYSYYDFDSWGQGTEVTVSS,low polyreactivity
19,QVQLVESGGGLVQAGGSLRLRCAASGRTLGRYAMGWYRQAPGKDRELVAAIRIGGGSTYYADSVKGRFTISRDNAKNTVYLQMISLKPEDTAVYYCATRGYINGAGFGYWGQGTQVTVSS,high polyreactivity
20,QVQLVESGGGLVQAGGSLRLRCAASGSIFFYYVMGWYRQAPGKEREFVAAITYSGGSTYYADSVKGRFTISRDNAKNTVYFQMNSMQQEDTAVYYCAADYSPSIGGFWFGGRHYGYWGQGTQVTVSS,low polyreactivity
